16 molecules from patent US20130225434A1 (BOARD OF TRUSTEES OF THE UNIVERSITY OF ILLINOIS, published 2013) can be followed below.

B1: A7 variant of the FHA1 domain, phage-displayed (designed binder, not shown: small tags and cut ends)
chain: MENITQPTQQSTQATQRFLIEKFSQEQIGENIVSRVISTTGQIPIRDLSADISQVLKEKRSIKKVWTFGRNPACDYHLGNISRLSNKHFQILLGEDGNLLLNDISTNGTWLNGQKVEKNSYQLLSQGDEITVGVGVESDILSLVIFINDKFKQSLEQNKVDRIRSNLKNT
notes: From the library built on the 3C-3S template
B2: A10 variant of the FHA1 domain, phage-displayed (designed binder, not shown: small tags and cut ends)
chain: MENITQPTQQSTQATQRFLIEKFSHEQIGENIVSRVISTTGQIPIRDLSADISQVLKEKRSIKKVWTFGRNPACDYHLGNISRLSNKHFQILLGEDGNLLLNDISTNGTWLNGQKVEKNSYQLLSQGDEITVGVGVESDILRLVIFINDKFKQSLEQNKVDRIRSNLKNT
notes: as for B1
B3: C12 variant of the FHA1 domain, phage-displayed (designed binder, not shown: small tags and cut ends)
chain: MENITQPTQQSTQATQRFLIEKFSQEQIGENIVSRVISTTGQIPIRDLSADISQVLKEKRSIKKVRTFGRNPACDYHLGNISRLSNKHFQILLGEDGNLLLNDISTNGTWLNGQKVEKNSNQLLSQGDEITVGVGVESDILSLVIFINDKFKQSLEQNKVDRIRSNLKNT
notes: as for B1
B4: G9 variant of the FHA1 domain, phage-displayed (designed binder, not shown: large carriers; small tags and cut ends)
chain: MENITQPTQQSTRATQRFLIEKFSQEQIGENIVSRVISTTGQIPIRDLSADISQVLKEKRSIKKVWTFGRNPACDYHLGNISRLSNKHFQILLGEDGNLLLNDVSTNGTWLNGQKVEKNSYQLLSQGDEITVGVGVESDILSLVIFINDKFKQSLEQNKVDRISSNLKNT
notes: as for B1
B5: P (designed binder)
FHA1 domain displayed on M13 protein III: MENITQPTQQSTQATQRFLIEKFSQEQIGENIVPRVISTTGQIPIRDLSADISQVLKEKRSIKKVWTFGRNPACDYHLGNISRLSNKHFQILLGEDGNLLLNDISTNGTWLNGQKVEKNSNQLLSQGDEITVGVGVESDILSLVIFINDKFKQSLEQNKVDRIRSNLKNT
notes: also called S34P
B6: G (designed binder)
FHA1 domain displayed on M13 protein III: MENITQPTQQSTQATQRFLIEKFSQEQIGENIVGRVISTTGQIPIRDLSADISQVLKEKRSIKKVWTFGRNPACDYHLGNISRLSNKHFQILLGEDGNLLLNDISTNGTWLNGQKVEKNSNQLLSQGDEITVGVGVESDILSLVIFINDKFKQSLEQNKVDRIRSNLKNT
notes: also called S34G
B7: C (designed binder)
FHA1 domain displayed on M13 protein III: MENITQPTQQSTQATQRFLIEKFSQEQIGENIVCRVISTTGQIPIRDLSADISQVLKEKRSIKKVWTFGRNPACDYHLGNISRLSNKHFQILLGEDGNLLLNDISTNGTWLNGQKVEKNSNQLLSQGDEITVGVGVESDILSLVIFINDKFKQSLEQNKVDRIRSNLKNT
notes: also called S34C
B8: Q (designed binder)
FHA1 domain displayed on M13 protein III: MENITQPTQQSTQATQRFLIEKFSQEQIGENIVQRVISTTGQIPIRDLSADISQVLKEKRSIKKVWTFGRNPACDYHLGNISRLSNKHFQILLGEDGNLLLNDISTNGTWLNGQKVEKNSNQLLSQGDEITVGVGVESDILSLVIFINDKFKQSLEQNKVDRIRSNLKNT
notes: also called S34Q
B9: D (designed binder)
FHA1 domain displayed on M13 protein III: MENITQPTQQSTQATQRFLIEKFSQEQIGENIVDRVISTTGQIPIRDLSADISQVLKEKRSIKKVWTFGRNPACDYHLGNISRLSNKHFQILLGEDGNLLLNDISTNGTWLNGQKVEKNSNQLLSQGDEITVGVGVESDILSLVIFINDKFKQSLEQNKVDRIRSNLKNT
notes: also called S34D
B10: R (designed binder)
FHA1 domain displayed on M13 protein III: MENITQPTQQSTQATQRFLIEKFSQEQIGENIVRRVISTTGQIPIRDLSADISQVLKEKRSIKKVWTFGRNPACDYHLGNISRLSNKHFQILLGEDGNLLLNDISTNGTWLNGQKVEKNSNQLLSQGDEITVGVGVESDILSLVIFINDKFKQSLEQNKVDRIRSNLKNT
notes: also called S34R
B11: E (designed binder)
FHA1 domain displayed on M13 protein III: MENITQPTQQSTQATQRFLIEKFSQEQIGENIVERVISTTGQIPIRDLSADISQVLKEKRSIKKVWTFGRNPACDYHLGNISRLSNKHFQILLGEDGNLLLNDISTNGTWLNGQKVEKNSNQLLSQGDEITVGVGVESDILSLVIFINDKFKQSLEQNKVDRIRSNLKNT
notes: also called S34E
B12: T (designed binder)
FHA1 domain displayed on M13 protein III: MENITQPTQQSTQATQRFLIEKFSQEQIGENIVTRVISTTGQIPIRDLSADISQVLKEKRSIKKVWTFGRNPACDYHLGNISRLSNKHFQILLGEDGNLLLNDISTNGTWLNGQKVEKNSNQLLSQGDEITVGVGVESDILSLVIFINDKFKQSLEQNKVDRIRSNLKNT
notes: also called S34T
B13: N (designed binder)
FHA1 domain displayed on M13 protein III: MENITQPTQQSTQATQRFLIEKFSQEQIGENIVNRVISTTGQIPIRDLSADISQVLKEKRSIKKVWTFGRNPACDYHLGNISRLSNKHFQILLGEDGNLLLNDISTNGTWLNGQKVEKNSNQLLSQGDEITVGVGVESDILSLVIFINDKFKQSLEQNKVDRIRSNLKNT
notes: also called S34N
B14: H (designed binder)
FHA1 domain displayed on M13 protein III: MENITQPTQQSTQATQRFLIEKFSQEQIGENIVHRVISTTGQIPIRDLSADISQVLKEKRSIKKVWTFGRNPACDYHLGNISRLSNKHFQILLGEDGNLLLNDISTNGTWLNGQKVEKNSNQLLSQGDEITVGVGVESDILSLVIFINDKFKQSLEQNKVDRIRSNLKNT
notes: also called S34H
B15: K (designed binder)
FHA1 domain displayed on M13 protein III: MENITQPTQQSTQATQRFLIEKFSQEQIGENIVKRVISTTGQIPIRDLSADISQVLKEKRSIKKVWTFGRNPACDYHLGNISRLSNKHFQILLGEDGNLLLNDISTNGTWLNGQKVEKNSNQLLSQGDEITVGVGVESDILSLVIFINDKFKQSLEQNKVDRIRSNLKNT
notes: also called S34K
B16: Plk1-pT (peptide)
peptide: Biotin-SGSAGPMQS[pT]PLNGAKK-NH2
SMILES: CSCC[C@H](NC(=O)[C@@H]1CCCN1C(=O)CNC(=O)[C@H](C)NC(=O)[C@H](CO)NC(=O)CNC(=O)[C@H](CO)NC(=O)CCCC[C@@H]1SC[C@@H]2NC(=O)N[C@@H]21)C(=O)N[C@@H](CCC(N)=O)C(=O)N[C@@H](CO)C(=O)N[C@H](C(=O)N1CCC[C@H]1C(=O)N[C@@H](CC(C)C)C(=O)N[C@@H](CC(N)=O)C(=O)NCC(=O)N[C@@H](C)C(=O)N[C@@H](CCCCN)C(=O)N[C@@H](CCCCN)C(N)=O)[C@@H](C)OP(=O)(O)O

Square brackets hold non-standard residues; d marks the D form. * marks the point of attachment. Biotin = O=C1N[C@H]2[C@H](CS[C@H]2CCCCC(=O)*)N1; pT = C[C@@H](OP(=O)(O)O)[C@H](N)C(=O)O; pS = N[C@@H](COP(=O)(O)O)C(=O)O

The target of the first test is T1, BRCT-pS (SMILES …).
T1 construct: also called Biotin-BRCT-pS
T1 peptide: Biotin-SGSAYDI[pS]QVFPFAKKK-NH2
In words: phage ELISA; biotinylated peptide on Neutravidin, A405. As for the experimental part: FIG. 9A is a photograph of 96-well plates containing phage supernatants from 96 individual clones, which were isolated after three rounds of selection, heated (50° C.), cooled, and added to microtiter plate wells coated with the phosphopeptide ligand. Binding of phage particles in the wells was monitored with an anti-M13 antibody conjugated to HRP. FIG. 9B is a graph showing the ratio of the ELISA signals for individual phage clones generated with wells contained with the target protein compared to a negative control protein (background).
Phage particles produced from 96 clones isolated after round #3, were heated at 50° C. for 3 hr and cooled to RT. The phage supernatants were then incubated with both the target peptide (500 ng/well) immobilized on NeutrAvidin (1 μg/well) coated plate wells and an unrelated target (background). Binding phage clones were detected using anti-M13 antibody conjugated to HRP (GE Healthcare). The green, colored product of the enzymatic reaction in the microtiter plate wells was measured at 405 nm using the FLUOstar OPTIMA plate reader (BMG Labtech). […] In some cases, the signal over background ratio ranged from 3 to 20 for clones (FIG. 9B).
Turning to B1, the binding result was “no binding”.

As for B2, the binding result is reported as “no binding”.

Take B3: the binding result is “no binding”.

B4: the binding result is reported as “no binding”.

In another test the target is T2, Rad9-pT peptide with SGS linker (SGS-SLEVpTEADATFYAKK) (yeast, SMILES …).
T2 construct: also called cognate pT peptide; Rad-pT
T2 peptide: Biotin-SGSSLEV[pT]EADATFYAKK-NH2
The test is described as follows: phage ELISA on immobilized Rad9-pT, phage normalised to the Flag epitope; anti-M13-HRP, A405. From the text:
Through Kunkel mutagenesis (Yaffe (2002) Nat Rev Mol Cell Bol 3, 177-86), the amino acid residue at position 34 in the β1 strand of the D2 FHA 1 domain was replaced (from the naturally-occurring V) one at a time with each of the other naturally occurring amino acids and binding to the immobilized Rad9-pT peptide was monitored by phage ELISA. Phage binding was detected using anti-M13 antibody conjugated to Horse Radish Peroxidase (HRP). […] All the variants display an N-terminal Flag peptide and the amount of phage particles used for each variant in this experiment has been normalized for this epitope.
To amplify the phage particles displaying the recombinant FHA1 variants, TG1 bacterial cells (5 mL; Stratagene) harboring the phagemid DNA were infected at mid-log (OD₆₀₀ₙₘ=0.5-0.6) with M13K07 helper phage (New England Biolabs) at a multiplicity of infection (MOI) of 20 for 1 h at 37° C. at 150 rpm. Infected cells were centrifuged, and the pellet was resuspended in fresh Luria Bertani medium (LB: 10 g Tryptone, 5 g Yeast extract, and 10 g NaCl per liter) supplemented with 50 μg/mL carbenicillin and 50 μg/ml kanamycin, and phage were amplified overnight at 30° C. at 250 rpm. All of the phage ELISA steps were performed at room temperature. Biotinylated peptides (100 μL, 5 μg/mL) were immobilized on Nunc MaxiSorp flat-bottom 96 well plates (Thermo Fisher Scientific) via NeutrAvidin™ Biotin binding protein (100 μL, 10 μg/mL; Thermo Fisher Scientific) and blocked with 2% skim milk in 1×PBS (200 μL per well).
On to B5, for which the binding result is on record as “no binding”.

In the case of B6, the binding result is “no binding”.

Regarding B7, the binding result is “no binding”.

For the molecule B8, the binding result is “no binding”.

B9: the binding result is “no binding”.

Regarding B10, the binding result is reported as “no binding”.

Regarding B11, the binding result is “no binding”.

Regarding B12, the binding result was “no binding”.

In the case of B13, the binding result is “no binding”.

Take B14: the binding result is “no binding”.

For the molecule B15, the binding result was “no binding”.

For another test, the target named is T3, WT FHA1 domain of S. cerevisiae Rad53, phage-displayed (protein III fusion on bacteriophage M13) (Saccharomyces cerevisiae; bacteriophage …, UniProt P22216 1-170).
T3 construct: not shown: minor coat protein III (pIII, gene III product) of bacteriophage M13
T3 sequence: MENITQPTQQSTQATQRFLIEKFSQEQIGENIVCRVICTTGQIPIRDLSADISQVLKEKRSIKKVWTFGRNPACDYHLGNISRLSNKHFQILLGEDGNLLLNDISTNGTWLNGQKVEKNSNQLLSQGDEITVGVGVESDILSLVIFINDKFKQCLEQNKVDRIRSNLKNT
In words: phage ELISA; biotinylated peptide on Neutravidin; anti-M13-HRP, A405 [a]. The source says:
Binding of phage particles was detected using anti-M13 antibody conjugated to HRP. FIG. 4(b) is a graph of the results of ELISA experiments of GST fusions of the WT FHA1 domain and three of its variants, 3C-3S, 4C-4S, and D2, that bound specifically to the cognate pT peptide (Rad9-pT; shown as solid histograms) immobilized on plastic microtiter plate wells via Neutravidin. Binding was detected using anti-GST antibody conjugated to HRP. The peptide sequences for Rad9-pT, Rad9-T, Rad9-pS, Rad9-pY, Plk1-pT and BRCT-pS are SGSSLEVp[…] (SEQ ID NO: 1), […] (SEQ ID NO: 2), SGSSLEVp[…] (SEQ ID NO: 3), SGSSLEVp[…] (SEQ ID NO: 4), […]p[…] (SEQ ID NO: 5) and SGSAYDIp[…] (SEQ ID NO: 6), respectively. The peptide sequence for the WT FHA1 domain from S. cerevisiae Rad53 protein kinase includes […] (SEQ ID NO:7), which includes residues 1-170 of S. cerevisiae Rad53 (SEQ ID NO:8) (Liao et al. (2000) J. Mol. Biol 304, 941-51; Durocher et al. (1999) Mol Cell 4). […] The β-strands are labeled from 1 to 11 in the WT FHA1 domain structure and the N- and C-termini are noted.
(In an ELISA, binding on a coated surface is turned into a signal by an enzyme label.)
Regarding B16, the binding result is given as “no binding”.
